Reference: patent US20240279324A1

Target: VEGF (human) (UniProt P15692)
Assay: VEGF blocking assay (luminescence)

Sequence of VEGF (human) (P15692 other isoform, or with tags, fused parts or gaps): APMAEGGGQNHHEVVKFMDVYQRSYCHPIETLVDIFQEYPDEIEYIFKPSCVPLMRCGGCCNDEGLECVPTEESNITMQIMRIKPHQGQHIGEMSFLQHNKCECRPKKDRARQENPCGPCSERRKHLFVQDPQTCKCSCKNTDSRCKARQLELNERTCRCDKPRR

How did the IC50 turn out when Avastin was run?
The IC50 was 0.107 nM.
